Test results as given in paper PMC12524713.

How the values were obtained:
[1] = biological target: SARS-CoV-2 3-chymotrypsin-like protease (3CL^pro) (SARS-CoV-2); test: mass photometry; TwoMP mass photometer, proteins diluted in PBS to 10 nM, room temperature, 60 s; the monomer is too small to resolve
[2] = biological target: catalytic domain of matrix metalloproteinase-14 (MMP14) (human) (UniProt P50281); test: SPR; cat-MMP14 amine-coupled on a CM5 chip (Biacore T200); 3CL^pro (0.062-20 uM) or PL^pro (0.041-10 uM) flowed in PBSP (20 mM phosphate pH 7.4, 137 mM NaCl, 2.7 mM KCl, 0.05% P20), 30 uL/min, 180 s association, 300 s dissociation, 25 C; 1:1 Langmuir kinetic fit, KD = kd/ka

SARS-CoV-2 3-chymotrypsin-like protease (3CL^pro) (enzyme)
stoichiometry N [1]: 2
Kd [2]: 3.21 µM
koff [2]: 0.0012 s⁻¹
kon [2]: 386 M⁻¹ s⁻¹
